Test results from article PMC9876794 (2022).

B1: D068 (antibody, V domains shown)
VH: EVQLVESGGGLVKPGGSLRLSCAASGFTFSSYSMNWVRQAPGKGLEWVSSISSSSSYIYYADSVKGRFTISRDNAKNSLYLQMNSLRAEDTAVYYCARVDSSGWYTGDAFDIWGQGTMVTVSS
VL: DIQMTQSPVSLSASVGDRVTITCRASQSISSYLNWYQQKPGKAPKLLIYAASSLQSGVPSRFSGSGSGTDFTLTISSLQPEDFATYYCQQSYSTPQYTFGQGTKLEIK
B2: D008 (antibody, V domains shown)
VH: QVQLVESGGGVVQPGRSLRLSCAASGFTFRSYGMHWVRQAPGKGLEWVAVISYDGSTKYYADSVKGRFTISRDNSKNTLYLQMNSLRAEDTAVYYCAKGGYYYDSNTYYVYWGQGTLVTVSS
VL: DIQMTQSPSSLSASVGDRVTITCQASQDISNHLNWYQQKPGKAPKLLIYDASNLETGVPSRFSGSGSGTDFTFTISSLQPEDIATYYCQQYDNLPPITFGQGTRLEIK
B3: C2739 (antibody, V domains shown)
VH: EVQLVESGGGLVQPGGSLRLSCAASGFTFSSYWMSWVRQAPGKGLEWVANIKKDGSEKYYVDSVKGRFTISRDNDKNSLYLQMNSLRAEDTAVYYCARKKYYYGDFDYWGQGTLVTVSS
VL: NFMLTQPHSVSESPGKTVTISCTRSSGSIASNYVQWYQQRPGSSPTTVIYEDNQRPSGVPDRFSGSIDSSSNSASLTISGLKTEDEADYYCQSYDSIIREVFGGGTKLTVL
B4: D144 (antibody, V domains shown)
VH: EVQLVESGGGLVQPGGSLRLSCAASGFTFSSYWMHWVRQAPGKGLVWVSRINSDGSSTSYADSVKGRFTISRDNAKNTLYLQMNSLRAEDTAVYYCARVPDTAMVTGINYYYYYGMDVWGQGTTVTVSS
VL: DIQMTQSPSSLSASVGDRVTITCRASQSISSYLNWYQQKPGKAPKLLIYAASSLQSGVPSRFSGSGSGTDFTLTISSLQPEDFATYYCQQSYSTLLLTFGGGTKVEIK
B5: C2705 (antibody, V domains shown)
VH: EVQLVQSGAEVKKPGESLKISCKGSGYSFTSYWIGWVRQMPGKGLEWMGIIYPGDSDTRYSPSFQGQVTISADKSISTAYLQWSSLKASDTAMYYCARPVVTDYWYFDLWGRGTLVTVSS
VL: not shown
B6: D145 (antibody, V domains shown)
VH: QVQLVESGGGVVQPGRSLRLSCAASGFTFSSYGMHWVRQAPGKGLEWVAVISYDGSNKYYADSVKGRFTISRDNSKNTLYLQMNSLRAEDTAVYYCAKGSGPYYYDSSGYYSLFDYWGQGTLVTVSS
VL: EIVMTQSPATLSVSPGERATLSCRASQSISSNLAWYQQKPGQAPRLLIDGASTRATGIPARFSGSGSGTEFTLTISSLQSEDFAVYYCQQYNNWPTFGQGTKLEIK
B7: D101 (antibody, V domains shown)
VH: EVQLVESGGGLVQPGGSLRLSCAASGFTFSNYDMHWVRQATGKGLEWVSTIGTVGDTYYPGSVKGRFTISRENAKNSLYLQMNSLRAGDTAVYYCARGGGMTTVTLDVWGQGTTVTVSS
VL: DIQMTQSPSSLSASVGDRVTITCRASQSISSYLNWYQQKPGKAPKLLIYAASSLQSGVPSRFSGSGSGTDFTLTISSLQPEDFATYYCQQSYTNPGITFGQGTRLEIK
B8: D048 (antibody, V domains shown)
VH: QLQLQESGPGLVKPSETLSLTCTVSGGSISSSSYYWGWIRQPPGKGLELIGTIYYSGSTYYNPSLKSRVTISVDTSKNQFSLKLSSVTAADTAVYYCARKGPYYYDRSGYYRPGPIDYWGQGTLVTVSS
VL: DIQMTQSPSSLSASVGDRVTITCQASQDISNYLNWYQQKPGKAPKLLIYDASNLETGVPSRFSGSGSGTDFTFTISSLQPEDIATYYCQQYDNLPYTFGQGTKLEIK
B9: C2723 (antibody, V domains shown)
VH: QVQLQESGPGLVKPSETLSLTCTVSGGSVSSGSYYWSWIRQPPGKGLEWIGYIYYSGSTNYNPSLKSRVTISVDTSKNQFSLKLSSVTAADTAVYYCARGALYDSSGYYPELPVYWGQGTLVTVSS
VL: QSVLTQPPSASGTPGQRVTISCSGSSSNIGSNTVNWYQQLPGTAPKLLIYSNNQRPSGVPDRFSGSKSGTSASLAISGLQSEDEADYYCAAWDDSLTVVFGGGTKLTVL
B10: C2690 (antibody, V domains shown)
VH: EVQLVESGGGVVQPGRSLRVSCAASGFTFSSYGMHWVRQAPGKGLEWVAVISYDGSNKYYADSVKGRFSISRDNSKNTLYLQMNSLRAEDTAVYYCAKVISSFGGGSLNYFDYWGQGTLVTVSS
VL: AIRMTQSPSSLSASVGDRVTITCQASQDISNYLNWYQQKPGKAPKLLIYDASNLETGVPSRFSGSGSGTDFTFTISSLQPEDIATYYCQQYDNLPITFGQGTRLEIK
B11: D063 (antibody, V domains shown)
VH: EVQLVQSGAEVKKPGESLKISCKGSGYSFTSYWIGWVRQMPGKGLEWMGIIYPGDSDTSPSFQGQVTISADKSISTAYLQWSSLKASDTAMYYCARVLNWNLGDYWGQGTLVTVSS
VL: not shown
B12: D066 (antibody, V domains shown)
VH: QVQLVQSGAEVKKPGASVKVSCKASEYTFTNYYMHWVRQAPGQGLEWMGIINPSAGSTSYAQKFQGRVRMTSDTSTNTVYMELSSLRSEDTAVYYCARGVLVPAAEYYFDYWGQGTLVTVSS
VL: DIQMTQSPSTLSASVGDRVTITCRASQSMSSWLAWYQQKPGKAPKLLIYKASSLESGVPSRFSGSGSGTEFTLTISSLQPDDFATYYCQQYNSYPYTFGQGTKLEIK
B13: D125 (antibody, V domains shown)
VH: QVQLQESGPGLVKPSETLSLTCSVSGVSISSYYWSWIRQPPGKGLEWIGYIYYSGSTNYNPSLKSRVTISVDTSKNQFSLKLSSVTAADTAVYYCARVVGDGYNFGYYYYMDVWGKGTTVTVSS
VL: QSVLTQPPSVSAAPGQKVTISCSGSSSNIGNNYVSWYQQLPGTAPKLLIYENNKRPSGIPDRFSGSKSGTSATLGITGLQTGDEADYYCGTWDSSLSAYVFGTGTKVTVL
B14: D006 (antibody, V domains shown)
VH: EVQLVQSGAEVKKPGESLKISCKGSGYSFTSYWIGWVRQMPGKGLEWMGIIYPGDSDTRYSPSFQGQVTISADKSISTAYLQWSSLKASDTAMYYCASFGRNDAFDIWGQGTMVTVSS
VL: not shown
B15: D138 (antibody, V domains shown)
VH: QVQLVESGGGVVQPGRSLRLSCAASGFTFSSYGMHWVRQAPGKGLEWVAVISYDGSNKYYADSVKGRFTISRDNSKNTLYLQMNSLRAEDTAVYYCAKRAPYYYGPGGIDYWGQGTLVTVSS
VL: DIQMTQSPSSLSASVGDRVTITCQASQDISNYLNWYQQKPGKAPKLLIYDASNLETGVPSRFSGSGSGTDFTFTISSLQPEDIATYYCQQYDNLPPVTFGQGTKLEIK
B16: D067 (antibody, V domains shown)
VH: EVQLVESGGGLVQPGGSLRLSCAASGFIFSGYDMHWVRQAPGKGLEWVSAIGTAGDTYYPGSVKGRFILSRENAKNSLYLQMNSLRAGDTAVYYCARALYRFGELLGYDYWGQGTLVTVSS
VL: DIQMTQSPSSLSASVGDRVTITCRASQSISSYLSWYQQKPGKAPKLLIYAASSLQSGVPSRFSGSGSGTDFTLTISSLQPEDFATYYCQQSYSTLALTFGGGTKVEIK
B17: D013 (antibody, V domains shown)
VH: QVQLVQSGAEVKKPGASVRISCKTSGYIFAYYFIHWFRQAPGQGPEWMGWINPKSGGTNYAQKFQDRVTMTTDSSITTAFMALRSLRSDDTAVYYCTREGVGTISDAGFGYWGQGTPVTVSS
VL: SYVLTQPPSVSVAPGKTATITCGGNNIGSKSVHWYHQKPGQAPVMVVYNDKERPSGIPERFSGSKSGNTATLTITWVEADDEADYYCQAWDRPSGYVFGTGTKVTVL
B18: D025 (antibody, V domains shown)
VH: QVQLVESGGGVVQPGRSLRLSCAASGFTFSSYGMHWVRQAPGKGLEWVAVISYDGSNKYYADSVKGRFTISRDNSKNTLYLQMNSLRAEDTAVYYCAKRGQGYCGGDCFSGYFDYWGQGTLVTVSS
VL: not shown
B19: C2716 (antibody, V domains shown)
VH: EVQLVESGGGLIQPGGSLRLSCAASGFIVSSNYMSWVRQAPGKGLEWVSVIYSGGSTYYADSVKGRFTISRDNSKNTLYLQMNSLRAEDTAVYYCARDLGSYGHFDYWGQGTLVTVSS
VL: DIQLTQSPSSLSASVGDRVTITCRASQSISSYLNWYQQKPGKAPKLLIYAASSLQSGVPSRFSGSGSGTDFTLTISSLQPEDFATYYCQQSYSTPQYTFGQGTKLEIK
B20: C2702 (antibody, V domains shown)
VH: EVQLVESGGGLVQPGGSLRLSCAASGFTFSSYSMNWVRQAPGKGLEWVSYISSSSSTIYYADSVKGRFTISRDNAKNSLYLQMNSLRDEDTAVYYCASFLWDHSGYDLLFGMDVWGQGTTVTVSS
VL: not shown
B21: D045 (antibody, V domains shown)
VH: EVQLVESGGGLVQPGGSLRLSCAASGFTFSSYSMNWVRQAPGKGLEWVSYISSSSSTIYYADSVKGRFTISRDNAKNSLYLQMNSLRDEDTAVYYCARHYGSGSSYYYYGMDVWGQGTTVTVSS
VL: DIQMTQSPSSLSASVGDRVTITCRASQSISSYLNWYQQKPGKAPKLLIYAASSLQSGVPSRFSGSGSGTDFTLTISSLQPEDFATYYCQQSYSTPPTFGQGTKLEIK
B22: C2728 (antibody, V domains shown)
VH: QVQLVESGGGVVQPGRSLRLSCAASGFTFSSYGMHWVRQAPGKGLEWVAVIWYDGSNKYYADSVKGRFTISRDNSKNTLYLQMNSLRAEDTAVYYCARERPHPSITMIVPNNYGMDVWGQGTTVTVSS
VL: not shown
B23: C2709 (antibody, V domains shown)
VH: EVQLVESGGGLVQPGGSLRLSCAASGFTVSSNYMSWVRQAPGKGLEWVSVIYSGGSTYYADSVKGRFTISRDNSKNTLYLQMNSLRAEDTAVYYCARDNEHYGSGSLTLDYWGQGTLVTVSS
VL: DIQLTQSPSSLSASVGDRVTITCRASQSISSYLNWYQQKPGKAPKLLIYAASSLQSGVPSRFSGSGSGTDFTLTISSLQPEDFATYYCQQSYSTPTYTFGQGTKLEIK
B24: D041 (antibody, V domains shown)
VH: EVQLVQSGAEVKKPGESLKISCKGSGYSFTSYWIGWVRQMPGKGLEWMGIIYPGDSDTRYSPSFQGQVTISADKSISTAYLQWSSLKASDTAMYYCARHPTVTGWFDPWGQGTLVTVSS
VL: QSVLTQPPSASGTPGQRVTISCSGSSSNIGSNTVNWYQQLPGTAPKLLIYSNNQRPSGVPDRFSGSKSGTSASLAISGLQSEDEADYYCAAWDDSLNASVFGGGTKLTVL
B25: D124 (antibody, V domains shown)
VH: QVQLQQWGAGLLKPSETLSLTCAVYGGPFTGYSWTWIRQSPGKGLEWIGEINHSGSTSYNPSLQSRVTFSIDTSKNQFSLELSSVTAADTAVYFCARGNRNRYHTSDWYYYGMDVWGQGTTVTVSS
VL: DIQMTQSPSSLSAYVGDRVTITCRASQGINTYLAWYQQKPGKVPRLLIYGASTLQSGVPSRFSGSGSGTEFTLTISSLQPEDIATYYCQKYNSAPRTFGQGTKVEIK
B26: C2708 (antibody, V domains shown)
VH: EVQLVESGGVVVQPGGSLRLSCAASGFTFDDYAMHWVRQAPGKGLEWVSLISWDGGSTYYADSVKGRFTISRDNSKNSLYLQMNSLRAEDTALYYCAKDIEGGSGWSFDYWGQGTLVTVSS
VL: QSALTQPPSVSGSPGQSVTISCTGTSSDVGSYNRVSWYQQPPGTAPKLMIYEVSNRPSGVPDRFSGSKSGNTASLTISGLQAEDEADYYCSSYTSSSTVVFGGGTKLTVL

Key:
[1] = target: T1, SARS-CoV-2 spike RBD (WT) (Severe acute respiratory syndrome …, UniProt P0DTC2); experiment: BLI
[2] = target: T1, SARS-CoV-2 spike RBD (WT); experiment: ELISA; set-up: unit not given here

Binder	Kd [1]	binding score [2]
B1	196 nM	286
B2	10.5 nM	12.4
B3	287 nM	52.3
B4	19.2 nM	24.8
B5	14 nM	867
B6	46.4 nM	0.826
B7	46.9 nM	8.93
B8	23.4 nM	4.6
B9	20.9 nM	39.7
B10	103 nM	381
B11	94.8 nM	9040
B12	7.6 nM	11.9
B13	103 nM	575
B14	8.76 nM	41.6
B15	201 nM	368
B16	183 nM	352
B17	338 nM	1330
B18	172 nM	> 10000
B19	370 nM	1100
B20	125 nM	295
B21	61.1 nM	15.7
B22	536 nM	132
B23	115 nM	5050
B24	13.2 nM	33
B25	219 nM	2540
B26	597 nM	7040
